Experimental data as given in PMC8458281, “Computational modeling and experimental validation of the EPI-X4/CXCR4 complex allows rational design of small peptide antagonists” (Communications Biology, 2021).

Tests used:
Assay in all cases: flow cytometry on cells; 12G5 antibody competition on 293T cells transiently transfected with CXCR4 wt or mutants (IRES-eGFP vector), eGFP-positive cells gated; serially diluted peptide with a constant concentration of CXCR4 antibody clone 12G5, 2 h; bound antibody read; IC50 by nonlinear regression
Details in all cases: one partner purified
CXCR4 D97E = molecular target: T1, CXCR4 D97E (human, UniProt P61073-1 1-352, D97E)
T1 construct: human CXCR4, isoform 1 or b; source: 293T cells, transiently transfected (pcDNA3.1 CXCR4-IRES-eGFP), on cells
T1 sequence (P61073 whole entry D97E, canonical isoform): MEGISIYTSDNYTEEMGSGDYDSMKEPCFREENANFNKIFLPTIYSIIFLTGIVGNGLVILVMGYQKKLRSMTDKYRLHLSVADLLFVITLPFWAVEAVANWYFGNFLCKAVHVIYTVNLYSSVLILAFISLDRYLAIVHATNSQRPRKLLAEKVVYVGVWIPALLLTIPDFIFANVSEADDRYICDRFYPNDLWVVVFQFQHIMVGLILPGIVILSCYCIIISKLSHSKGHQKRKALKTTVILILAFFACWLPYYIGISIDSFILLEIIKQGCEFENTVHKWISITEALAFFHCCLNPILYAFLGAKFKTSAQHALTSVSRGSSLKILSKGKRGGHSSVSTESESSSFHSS

CXCR4 D97E + V112L = molecular target: T2, CXCR4 D97E + V112L (human, UniProt P61073-1 1-352, D97E | V112L)
T2 construct: human CXCR4, isoform 1 or b; also called D97E plus V112L; source: 293T cells, transiently transfected (pcDNA3.1 CXCR4-IRES-eGFP), on cells
T2 sequence (P61073 whole entry D97E/V112L, canonical isoform): as the sequence (P61073 whole entry D97E, canonical isoform) above, with V112L counted along it

CXCR4 D97S = molecular target: T3, CXCR4 D97S (human, UniProt P61073-1 1-352, D97S)
T3 construct: human CXCR4, isoform 1 or b; source: 293T cells, transiently transfected (pcDNA3.1 CXCR4-IRES-eGFP), on cells
T3 sequence (P61073 whole entry D97S, canonical isoform): as the sequence (P61073 whole entry D97E, canonical isoform) above, with E97S counted along it

CXCR4 L41A = molecular target: T4, CXCR4 L41A (human, UniProt P61073-1 1-352, L41A)
T4 construct: human CXCR4, isoform 1 or b; source: 293T cells, transiently transfected (pcDNA3.1 CXCR4-IRES-eGFP), on cells
T4 sequence (P61073 whole entry L41A, canonical isoform): as the sequence (P61073 whole entry D97E, canonical isoform) above, with L41A, E97D counted along it

CXCR4 D97Q = molecular target: T5, CXCR4 D97Q (human, UniProt P61073-1 1-352, D97Q)
T5 construct: human CXCR4, isoform 1 or b; source: 293T cells, transiently transfected (pcDNA3.1 CXCR4-IRES-eGFP), on cells
T5 sequence (P61073 whole entry D97Q, canonical isoform): as the sequence (P61073 whole entry D97E, canonical isoform) above, with E97Q counted along it

CXCR4 D97E + V112A = molecular target: T6, CXCR4 D97E + V112A (human, UniProt P61073-1 1-352, D97E | V112A)
T6 construct: human CXCR4, isoform 1 or b; also called D97E plus V112A; source: 293T cells, transiently transfected (pcDNA3.1 CXCR4-IRES-eGFP), on cells
T6 sequence (P61073 whole entry D97E/V112A, canonical isoform): as the sequence (P61073 whole entry D97E, canonical isoform) above, with V112A counted along it

CXCR4 D262A = molecular target: T7, CXCR4 D262A (human, UniProt P61073-1 1-352, D262A)
T7 construct: human CXCR4, isoform 1 or b; source: 293T cells, transiently transfected (pcDNA3.1 CXCR4-IRES-eGFP), on cells
T7 sequence (P61073 whole entry D262A, canonical isoform): as the sequence (P61073 whole entry D97E, canonical isoform) above, with E97D, D262A counted along it

[1] = molecular target: T8, CXCR4 wt (transfected 293T cells) (human, UniProt P61073-1 1-352)
T8 construct: human CXCR4, isoform 1 or b; eGFP is expressed separately from an IRES, not fused; also called wild-type CXCR4; source: 293T cells, transiently transfected (pcDNA3.1 CXCR4-IRES-eGFP), on cells
T8 sequence (P61073 whole entry, the tested form may be a part, canonical isoform): as the sequence (P61073 whole entry D97E, canonical isoform) above, with E97D counted along it

CXCR4 E277A = molecular target: T9, CXCR4 E277A (human, UniProt P61073-1 1-352, E277A)
T9 construct: human CXCR4, isoform 1 or b; source: 293T cells, transiently transfected (pcDNA3.1 CXCR4-IRES-eGFP), on cells
T9 sequence (P61073 whole entry E277A, canonical isoform): as the sequence (P61073 whole entry D97E, canonical isoform) above, with E97D, E277A counted along it

CXCR4 V112A = molecular target: T10, CXCR4 V112A (human, UniProt P61073-1 1-352, V112A)
T10 construct: human CXCR4, isoform 1 or b; source: 293T cells, transiently transfected (pcDNA3.1 CXCR4-IRES-eGFP), on cells
T10 sequence (P61073 whole entry V112A, canonical isoform): as the sequence (P61073 whole entry D97E, canonical isoform) above, with E97D, V112A counted along it

CXCR4 V112A + L41A = molecular target: T11, CXCR4 V112A + L41A (human, UniProt P61073-1 1-352, L41A | V112A)
T11 construct: human CXCR4, isoform 1 or b; also called L41A plus V112A; source: 293T cells, transiently transfected (pcDNA3.1 CXCR4-IRES-eGFP), on cells
T11 sequence (P61073 whole entry L41A/V112A, canonical isoform): as the sequence (P61073 whole entry D97E, canonical isoform) above, with L41A, E97D, V112A counted along it

CXCR4 D97N = molecular target: T12, CXCR4 D97N (human, UniProt P61073-1 1-352, D97N)
T12 construct: human CXCR4, isoform 1 or b; source: 293T cells, transiently transfected (pcDNA3.1 CXCR4-IRES-eGFP), on cells
T12 sequence (P61073 whole entry D97N, canonical isoform): as the sequence (P61073 whole entry D97E, canonical isoform) above, with E97N counted along it

IC50 (CXCR4 D97E): 129 µM
IC50 (CXCR4 D97E + V112L): 223 µM
IC50 (CXCR4 D97S): 785 µM
IC50 (CXCR4 L41A): 132 µM
IC50 (CXCR4 D97Q): > 1000 µM
IC50 (CXCR4 D97E + V112A): 18 µM
IC50 (CXCR4 D262A): 5.21 µM
IC50 [1]: 6.99 µM
IC50 (CXCR4 E277A): 8.91 µM
IC50 (CXCR4 V112A): 11 µM
IC50 (CXCR4 V112A + L41A): 78 µM
IC50 (CXCR4 D97N): > 1000 µM
B1: EPI-X4 (Alb408-423) (peptide)
peptide: LVRYTKKVPQVSTPTL
notes: source: synthetic peptide (Fmoc solid-phase synthesis, HPLC-purified)
